Results reported in the supplement of paper PMC10567573.
± gives the standard deviation.

Assay: protein stability index of a GFP-peptide fusion (GPS, HEK-293T) (PSI 1-6); higher = more stable
[1] = treatment: DMSO, c terminus: a fixed tail appended
[2] = treatment: MLN4924 1 uM, 8 h, c terminus: a fixed tail appended
[3] = treatment: DMSO, c terminus: native
[4] = treatment: MLN4924 1 uM, 8 h, c terminus: native
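Note: 24-mer peptide tiles fused after GFP, lentivirally expressed, FACS-sorted into six equal bins by GFP/DsRed ratio, decoded by Illumina sequencing, PSI is the read-weighted mean bin number.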

Sequence | protein stability index [1] | protein stability index [2] | protein stability index [3] | protein stability index [4]
YLGSAYHASKCEFLANLHITALLN [DUSP5] | 2.58 ± 0.69 | 2.61 ± 0.47 | – | –
LLPLVTLCDGNPRRPSPVLRHLEL [SCNN1D] | 2.42 ± 0.42 | 2.27 ± 0.46 | – | –
HDTKDQSPSRAPGLRQRASNKVQD [HMOX1] | 5.58 ± 0.24 | 5.29 ± 0.14 | – | –
LNVNLNSVVLRRARGGAVSARYVL [DUSP5] | 2.19 ± 0.54 | 2.26 ± 0.51 | – | –
ADIPSVAFSSRLGGSRGAPGLLMA [DCAF4] | 2.83 ± 0.2 | 2.78 ± 0.51 | – | –
QIHLDVDNDRTTPSDLDSTGNSLN [DLC1] | 5.19 ± 0.25 | 5.28 ± 0.18 | – | –
NVTNLEGGPGRQTTSPNVLWPTPG [ESR2] | 3.17 ± 0.35 | 3.17 ± 0.37 | – | –
NNEEQRSGLIYLTNHIAPHARNGL [IKZF1] | 3.34 ± 0.33 | 3.52 ± 0.2 | – | –
MHDMLLEELAPVGTAHIPPTMHLE [ZNF449] | 3.71 ± 0.32 | 3.64 ± 0.12 | – | –
EALAVLEPYARLPPHKHVARPTEV [TRIB3] | 2.72 ± 0.36 | 2.77 ± 0.2 | – | –
FEQYCAWQLFLAHNIPLETIIPIL [INTS3] | 3.27 ± 0.74 | 2.85 ± 0.34 | – | –
GRSNAPITAPTEVEVMDETNCQKV [CSNK1G3] | 5.55 ± 0.15 | 5.59 ± 0.13 | – | –
FACPSKTDFFKNIMNFIDIVAIIP [KCNA1] | 3.29 ± 0.58 | 3.1 ± 0.49 | – | –
EFSVPFTEMKLRPRNFRSPAGGG [TNXB] | – | – | 3.4 ± 1.1 | 3.09 ± 1.1
LLHGLNLLWRKQLFCDVTLTAQGQ [KLHL14] | 3.3 ± 0.17 | 2.88 ± 0.53 | – | –
QAPPADFIPAHVAFDKKVLKFDAY [EFHC1] | 3.01 ± 0.38 | 2.98 ± 0.28 | – | –
GLELALACDIRVAASSAKMGLVET [AUH] | 2.37 ± 0.77 | 2.34 ± 0.18 | – | –
QYRWDMMHRLGEPQARMREENMER [BEX1] | 4.1 ± 0.37 | 4.23 ± 0.16 | – | –
RERMELLEEAKKMEMAKFRYILPV [RIPK4] | 2.48 ± 0.22 | 2.84 ± 0.4 | – | –
KIREQNLQDIKTAGPQSQVLCGVV [ADD1] | 3.15 ± 0.43 | 3.37 ± 0.24 | – | –
TITEEIRDGKVISSREHVQSRPL [KRT36] | – | – | 5.23 ± 0.29 | 5.26 ± 0.21
EKPYGCSECGKAFPRKSELTEHQR [ZNF649] | 3.95 ± 0.49 | 4.44 ± 0.52 | – | –
PYKREEEALEERRLSRGEIPTLQR [PKD2L1] | 4.76 ± 0.31 | 4.82 ± 0.27 | – | –

Sequence | protein stability index [1] | protein stability index [2] | protein stability index [3] | protein stability index [4]
QSLYQEVFGRLRDENGRPYSPSQY [NFE2L1] | 3.59 ± 0.31 | 3.4 ± 0.18 | – | –
GCKVPQEALLKLLAGLTRPDVRPP [SEPHS2] | 2.28 ± 0.33 | 2.03 ± 0.29 | – | –
ICTQKCALNWTDIPVAMEHQPPYI [VPS39] | 2.25 ± 0.48 | 2.12 ± 0.11 | – | –
HTPSDTGVSFQAISSMADFWDFAQ [PKD2L1] | 2.85 ± 0.36 | 3.01 ± 0.35 | – | –
RRILDELTLCKSDLESQVESLREE [KRT34] | 4.82 ± 0.14 | 4.75 ± 0.18 | – | –
LTRIRKWIEHSKLREINFKIVEFN [GLT8D2] | 2.48 ± 0.44 | 2.51 ± 0.39 | – | –
GSGAPSPLSKSSPATTVTSPNSTP [SNAP91] | 5.44 ± 0.16 | 5.4 ± 0.16 | – | –
VQRLTSRAARDYKIQNHGHRVLQR [FCHSD1] | 3.33 ± 0.08 | 3.44 ± 0.1 | – | –
GNDTSPSEGTNLNAPNSLGVSALC [HNF4A] | 4.65 ± 0.18 | 4.76 ± 0.15 | – | –
EALAKWAEGRTGFPWIDAIMTQLR [CRY1] | 3 ± 0.085 | 2.73 ± 0.21 | – | –
RYFPAGNVVNEGFFEENVLPPKK [GLIPR2] | – | – | 4.72 ± 0.066 | 4.59 ± 0.38
CASFIRTRLLLQFTQPQQTSFALE [C8orf76] | 2.46 ± 0.28 | 2.7 ± 0.58 | – | –
PVPPGWNPNSSSGKGSGGNAGSYI [DLX1] | 3.86 ± 0.21 | 3.93 ± 0.24 | – | –
ERLVVLDYIIRNTDRGNDNWLIKY [PI4K2A] | 2.2 ± 0.65 | 2.49 ± 0.65 | – | –
QPPVPSLSEVKPPPPPPPAQTFLF [TRADD] | 3.41 ± 0.49 | 3.44 ± 0.12 | – | –
DNLSDLVMVRWNKSLEWSPWNCIL [IQUB] | 2.56 ± 0.76 | 2.39 ± 0.34 | – | –
YVALFPCNECAKLIIQAGIKEVIF [DCTD] | 2.73 ± 1.2 | 2.96 ± 0.54 | – | –
APDSGRSAPYSAAFLELPHGSGGS [TBX6] | 4.3 ± 0.17 | 4.46 ± 0.066 | – | –
HYRASEEEPEYGEEIKGYPGVQAP [CHGB] | 4.64 ± 0.23 | 5.04 ± 0.36 | – | –
VIDAEPFIRCSLQCRDLVDEAKKF [KLHL12] | 2.58 ± 0.46 | 2.35 ± 0.065 | – | –
KRKEEECSTTDHPYKKPYMETSPS [TBX5] | 5.09 ± 0.22 | 5.02 ± 0.18 | – | –
PDRASGPEGSLSQTMAGSSPNTPQ [FAM104A] | 5.3 ± 0.21 | 5.34 ± 0.2 | – | –
